Kd data for 1 substance are collected here from paper doi:10.1101/2024.12.10.627789.

Usually Kd stands for the equilibrium constant for the complex coming apart.

The assay deals with CAM1. In words: ITC.

As to CBD peptide of eEF2K, the Kd was determined as 255 nM.
